The results in this text go back to US20150344570A1 (published 2015).

In one experiment the target is FcγRIIIa V (human, UniProt P08637 17-208). The experiment is described as follows: SPR (Biacore), KD. On the technique in general: SPR reads the build-up and loss of mass on a sensor chip optically.
Another experiment addresses FcγRIIIa F (human, UniProt P08637 17-208). In words: SPR (Biacore), KD.

Chain of FcγRIIIa V (P08637 17-208): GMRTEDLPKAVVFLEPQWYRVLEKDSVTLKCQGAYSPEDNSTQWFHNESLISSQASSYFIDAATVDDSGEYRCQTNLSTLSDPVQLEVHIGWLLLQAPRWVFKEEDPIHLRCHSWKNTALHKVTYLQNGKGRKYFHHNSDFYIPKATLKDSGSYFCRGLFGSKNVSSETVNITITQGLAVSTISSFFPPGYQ
Chain of FcγRIIIa F (P08637 17-208): as above

B1: H240-Kn184/H240-Hl068/L73-k0 (antibody, human IgG1, kappa)
heavy 1: QDQLVQSGAEVKKPGASVKVSCKASGFNIKDTYIQWVRQAPGQGLEWMGRIDPLRKQTKYREKFEGRVTITADTSTNTAYMELSSLRSEDTAVYYCVRSGREFDYWGQGTLVTVSSASTKGPSVFPLAPSSKSTSGGTAALGCLVKDYFPEPVTVSWNSGALTSGVHTFPAVLQSSGLYSLSSVVTVPSSSLGTQTYICNVNHKPSNTKVDKKVEPKSCDKTHTCPPCPAPEEYWGPMVFLFPPKPKDTLMISRTPEVTCVVVDVSDEDPEVKFNWYVDGVEVHNAKTKPREEQYNATYRVVSVLTVLHQDWLNGKEYKCKVSNKDLPAPIEKTISKAKGQPREPQVCTLPPSRDELTKNQVSLWCLVKGFYPSDIAVEWESNGQPENNYKTTPPVLDSDGSFFLYSKLTVDKSRWQQGNVFSCSVMHEALHNHYTQKSLSLSP
heavy 2: QDQLVQSGAEVKKPGASVKVSCKASGFNIKDTYIQWVRQAPGQGLEWMGRIDPLRKQTKYREKFEGRVTITADTSTNTAYMELSSLRSEDTAVYYCVRSGREFDYWGQGTLVTVSSASTKGPSVFPLAPSSKSTSGGTAALGCLVKDYFPEPVTVSWNSGALTSGVHTFPAVLQSSGLYSLSSVVTVPSSSLGTQTYICNVNHKPSNTKVDKKVEPKSCDKTHTCPPCPAPELLGGPSVFLFPPKPKDTLMISRTPEVTCVVVDVSHEEPEVKFNWYVDGVEVHNAKTKPREEQYNSTYRVVSVLTVLHQDWLNGKEYKCKVSNDALPKPIEETISKAKGQPREPQVYTLPPSRCELTKNQVSLSCAVKGFYPSDIAVEWESNGQPENNYKTTPPVLDSDGSFFLVSKLTVDKSRWQQGNVFSCSVMHEALHNHYTQKSLSLSP
light: DIQMTQSPSSLSASVGDRVTITCRASQDIHKYIAWYQQKPGQAPRLLIQYTSTLQPGVPSRFSGSGSGTDYTFTISSLQPEDIATYYCLQYEQLRTFGGGTKVEIKRTVAAPSVFIFPPSDEQLKSGTASVVCLLNNFYPREAKVQWKVDNALQSGNSQESVTEQDSKDSTYSLSSTLTLSKADYEKHKVYACEVTHQGLSSPVTKSFNRGEC
For the molecule B1, the “fold binding activity against H240-Kn033/H240-Hl033/L73-k0” value (from here on “fold binding activity”) with FcγRIIIa V and with FcγRIIIa F was at least 100 fold in each case.

B2: H240-Kn217/H240-Hl068/L73-k0 (antibody, human IgG1, kappa)
heavy 1: QDQLVQSGAEVKKPGASVKVSCKASGFNIKDTYIQWVRQAPGQGLEWMGRIDPLRKQTKYREKFEGRVTITADTSTNTAYMELSSLRSEDTAVYYCVRSGREFDYWGQGTLVTVSSASTKGPSVFPLAPSSKSTSGGTAALGCLVKDYFPEPVTVSWNSGALTSGVHTFPAVLQSSGLYSLSSVVTVPSSSLGTQTYICNVNHKPSNTKVDKKVEPKSCDKTHTCPPCPAPEDYWGPMVFLFPPKPKDTLMISRTPEVTCVVVDVSDEDPEVKFNWYVDGVEVHNAKTKPREEQYNATYRVVSVLTVLHQDWLNGKEYKCKVSNKDLPAPIEKTISKAKGQPREPQVCTLPPSRDELTKNQVSLWCLVKGFYPSDIAVEWESNGQPENNYKTTPPVLDSDGSFFLYSKLTVDKSRWQQGNVFSCSVMHEALHNHYTQKSLSLSP
heavy 2: QDQLVQSGAEVKKPGASVKVSCKASGFNIKDTYIQWVRQAPGQGLEWMGRIDPLRKQTKYREKFEGRVTITADTSTNTAYMELSSLRSEDTAVYYCVRSGREFDYWGQGTLVTVSSASTKGPSVFPLAPSSKSTSGGTAALGCLVKDYFPEPVTVSWNSGALTSGVHTFPAVLQSSGLYSLSSVVTVPSSSLGTQTYICNVNHKPSNTKVDKKVEPKSCDKTHTCPPCPAPELLGGPSVFLFPPKPKDTLMISRTPEVTCVVVDVSHEEPEVKFNWYVDGVEVHNAKTKPREEQYNSTYRVVSVLTVLHQDWLNGKEYKCKVSNDALPKPIEETISKAKGQPREPQVYTLPPSRCELTKNQVSLSCAVKGFYPSDIAVEWESNGQPENNYKTTPPVLDSDGSFFLVSKLTVDKSRWQQGNVFSCSVMHEALHNHYTQKSLSLSP
light: DIQMTQSPSSLSASVGDRVTITCRASQDIHKYIAWYQQKPGQAPRLLIQYTSTLQPGVPSRFSGSGSGTDYTFTISSLQPEDIATYYCLQYEQLRTFGGGTKVEIKRTVAAPSVFIFPPSDEQLKSGTASVVCLLNNFYPREAKVQWKVDNALQSGNSQESVTEQDSKDSTYSLSSTLTLSKADYEKHKVYACEVTHQGLSSPVTKSFNRGEC
In the case of B2, the “fold binding activity” value with FcγRIIIa V and in the experiment with FcγRIIIa F was at least 100 fold in each case.

B3: H240-Kn221/H240-Hl068/L73-k0 (antibody, human IgG1, kappa)
heavy 1: QDQLVQSGAEVKKPGASVKVSCKASGFNIKDTYIQWVRQAPGQGLEWMGRIDPLRKQTKYREKFEGRVTITADTSTNTAYMELSSLRSEDTAVYYCVRSGREFDYWGQGTLVTVSSASTKGPSVFPLAPSSKSTSGGTAALGCLVKDYFPEPVTVSWNSGALTSGVHTFPAVLQSSGLYSLSSVVTVPSSSLGTQTYICNVNHKPSNTKVDKKVEPKSCDKTHTCPPCPAPETYWGPMVFLFPPKPKDTLMISRTPEVTCVVVDVSDEDPEVKFNWYVDGVEVHNAKTKPREEQYNATYRVVSVLTVLHQDWLNGKEYKCKVSNKDLPAPIEKTISKAKGQPREPQVCTLPPSRDELTKNQVSLWCLVKGFYPSDIAVEWESNGQPENNYKTTPPVLDSDGSFFLYSKLTVDKSRWQQGNVFSCSVMHEALHNHYTQKSLSLSP
heavy 2: QDQLVQSGAEVKKPGASVKVSCKASGFNIKDTYIQWVRQAPGQGLEWMGRIDPLRKQTKYREKFEGRVTITADTSTNTAYMELSSLRSEDTAVYYCVRSGREFDYWGQGTLVTVSSASTKGPSVFPLAPSSKSTSGGTAALGCLVKDYFPEPVTVSWNSGALTSGVHTFPAVLQSSGLYSLSSVVTVPSSSLGTQTYICNVNHKPSNTKVDKKVEPKSCDKTHTCPPCPAPELLGGPSVFLFPPKPKDTLMISRTPEVTCVVVDVSHEEPEVKFNWYVDGVEVHNAKTKPREEQYNSTYRVVSVLTVLHQDWLNGKEYKCKVSNDALPKPIEETISKAKGQPREPQVYTLPPSRCELTKNQVSLSCAVKGFYPSDIAVEWESNGQPENNYKTTPPVLDSDGSFFLVSKLTVDKSRWQQGNVFSCSVMHEALHNHYTQKSLSLSP
light: DIQMTQSPSSLSASVGDRVTITCRASQDIHKYIAWYQQKPGQAPRLLIQYTSTLQPGVPSRFSGSGSGTDYTFTISSLQPEDIATYYCLQYEQLRTFGGGTKVEIKRTVAAPSVFIFPPSDEQLKSGTASVVCLLNNFYPREAKVQWKVDNALQSGNSQESVTEQDSKDSTYSLSSTLTLSKADYEKHKVYACEVTHQGLSSPVTKSFNRGEC
As for B3, the “fold binding activity” value with FcγRIIIa V and in the experiment with FcγRIIIa F was at least 100 fold throughout.

B4: H240-Kn199/H240-Hl068/L73-k0 (antibody, human IgG1, kappa)
heavy 1: QDQLVQSGAEVKKPGASVKVSCKASGFNIKDTYIQWVRQAPGQGLEWMGRIDPLRKQTKYREKFEGRVTITADTSTNTAYMELSSLRSEDTAVYYCVRSGREFDYWGQGTLVTVSSASTKGPSVFPLAPSSKSTSGGTAALGCLVKDYFPEPVTVSWNSGALTSGVHTFPAVLQSSGLYSLSSVVTVPSSSLGTQTYICNVNHKPSNTKVDKKVEPKSCDKTHTCPPCPAPELYWGPMVFLFPPKPKDTLMISRTPEVTCVVVDVSDEDPEVKFNWYVDGVEVHNAKTKPREEQYNATYRVVSVLTVLHQDWLNGKEYKCKVSNKDLPAPIEKTISKAKGQPREPQVCTLPPSRDELTKNQVSLWCLVKGFYPSDIAVEWESNGQPENNYKTTPPVLDSDGSFFLYSKLTVDKSRWQQGNVFSCSVMHEALHNHYTQKSLSLSP
heavy 2: QDQLVQSGAEVKKPGASVKVSCKASGFNIKDTYIQWVRQAPGQGLEWMGRIDPLRKQTKYREKFEGRVTITADTSTNTAYMELSSLRSEDTAVYYCVRSGREFDYWGQGTLVTVSSASTKGPSVFPLAPSSKSTSGGTAALGCLVKDYFPEPVTVSWNSGALTSGVHTFPAVLQSSGLYSLSSVVTVPSSSLGTQTYICNVNHKPSNTKVDKKVEPKSCDKTHTCPPCPAPELLGGPSVFLFPPKPKDTLMISRTPEVTCVVVDVSHEEPEVKFNWYVDGVEVHNAKTKPREEQYNSTYRVVSVLTVLHQDWLNGKEYKCKVSNDALPKPIEETISKAKGQPREPQVYTLPPSRCELTKNQVSLSCAVKGFYPSDIAVEWESNGQPENNYKTTPPVLDSDGSFFLVSKLTVDKSRWQQGNVFSCSVMHEALHNHYTQKSLSLSP
light: DIQMTQSPSSLSASVGDRVTITCRASQDIHKYIAWYQQKPGQAPRLLIQYTSTLQPGVPSRFSGSGSGTDYTFTISSLQPEDIATYYCLQYEQLRTFGGGTKVEIKRTVAAPSVFIFPPSDEQLKSGTASVVCLLNNFYPREAKVQWKVDNALQSGNSQESVTEQDSKDSTYSLSSTLTLSKADYEKHKVYACEVTHQGLSSPVTKSFNRGEC
As to B4, the “fold binding activity” value with FcγRIIIa V and with FcγRIIIa F was at least 100 fold in each case.
